Target: recombinant HLA-E-His protein (human) (UniProt P13747)
Assay: ELISA: the chimeric protein itself was coated in a 1:3 titration (the x axis is its coating concentration), HLA-E-His (Novus NBP2-47435PEP) was added, detected with Anti-6x-His-HRP (Abcam Ab1187)

| Substance | EC50 (read off the curve) |
| --- | --- |
| hSLAMF6-Fc-NKG2A chimeric protein (from UniProt Q96DU3 22-226; P26715 94-233) (Fc fusion) | 6 µg/mL |
| hTGFBR2-Fc-NKG2A chimeric protein (Fc fusion) | 5 µg/mL |

From patent US20230048633A1
